Reference: the supplement of paper PMC10567573

B1: ADAMTS4 (parent)
chain: SFRKFRYGYNNVVTIPAGATHILV

Variants of: B1
Test: protein stability index of a GFP-peptide fusion (GPS, HEK-293T) (PSI 1-6); higher = more stable
Conditions: c terminus: a fixed tail appended
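Also: lentivirally expressed fusions sorted by FACS into six bins by GFP to DsRed ratio, PSI derived from sequencing read proportions per bin multiplied by bin number.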

Protein stability index: each site, then its substitutions
G8: I 4.84 | C 2.46 | F 2.48 | A 2.21 | K 2.4 | R 2.96 | L 2.38 | E 2.1 | T 2.71 | D 2.5 | W 3.33 | P 2.38 | V 2.24 | H 3.15 | Y 1.51 | S 3.58 | N 3.3 | M 2.79 | Q 2.77
K4: Q 3.78 | D 1.76 | G 2.05 | V 1.97 | C 2.55 | T 2.68 | W 3.02 | N 3.74 | S 2.6 | L 2.71 | A 3.08 | M 2.08 | Y 3.11 | E 1.51 | H 2.56 | P 3.29 | F 2.78 | R 2.88
Y7: V 2.81 | C 2.84 | N 2.43 | T 3.1 | M 3.02 | R 2.8 | H 1.77 | P 2.83 | A 3.52 | I 2.89 | W 2 | S 2.19 | E 2.63 | L 2.46 | Q 2.24 | F 3.04 | K 2.92 | D 2.07
N10: E 1.56 | C 2.65 | F 2.9 | D 3.41 | H 1.84 | G 1.34 | I 3.13
F5: V 3.85 | W 2.87 | K 1.77 | M 3.23 | G 2.3 | P 1.88 | R 3.02 | E 2.51 | S 1.87 | N 1.84 | Y 1.98 | D 2.21 | L 2.78 | T 2.98 | Q 1.92 | H 1.66 | A 2.44
S1: I 2.62 | L 2.08 | T 1.61 | V 2.17 | M 2.99 | F 2.34 | E 3.35 | K 2.07 | P 2.22 | Y 2.22 | R 2.79 | Q 2.67 | N 2 | H 1.73
R3: N 2.89 | H 1.76 | E 2.13 | G 2.75 | V 2.99 | D 1.61 | L 3.11 | M 1.83 | Q 2.14 | C 3.97 | T 1.6 | K 3.1 | F 3.06 | S 2.58 | Y 2.37 | A 2.45 | I 3.31 | W 2.24
R6: T 2.37 | D 2.22 | N 2.5 | H 2.76 | A 1.91 | S 2.95 | M 3.49 | K 3 | C 4.22 | V 2.5 | Y 2.15 | I 2.3 | F 3.68 | P 3.56 | W 2.86 | L 3.25 | G 2.57 | Q 3.44
Y9: K 2.07 | C 1.55 | A 3.15 | N 2.14 | P 1.76 | F 1.72 | Q 2.01 | H 2.36 | T 2.05 | E 1.71 | I 2.46 | G 3.68 | V 1.65 | R 2.46 | L 2.75 | W 3.46 | D 2.86 | S 1.78 | M 1.9
F2: G 2.97 | C 3.07 | K 1.9 | I 2.03 | M 2.96 | T 1.62 | H 1.68 | R 2.18 | N 1.76 | A 1.94 | V 1.99 | P 2.15 | E 1.79 | L 1.75 | D 2.13 | Y 1.8 | W 2.38 | S 2.19 | Q 2.91
